Experiments:
mouse TMEM106B (mouse) [1] = molecular target: mouse TMEM106B (mouse) (UniProt Q80X71); test: FACS Neuro2a
mouse TMEM106B (mouse) [2] = molecular target: mouse TMEM106B (mouse) (UniProt Q80X71); test: FACS, HEK293 transfectants

B1: anti-TMEM106B antibody TM-4 (antibody, V domains shown)
VH: EVQVQQSGPVLVKPGASVKMSCKASGYTFTDYYMNWVKQSHGKNLEWIGVINPYNGGTSYHQKFKGKATLTVDKSSSTAYMELNSLTSEDSAVYYCARAATVVAGFDYWGQGTTLTVSS
VL: QAVVTQESALTTSPGETVTLTCRSSTGAVTTSNYANWVQEKPDHLFTGLIGGTNNRAPGVPARFSGSLIGDKAALTITGAQTEDEAIYFCVLWYSNHLVFGGGTKLTVL
Mouse TMEM106B (mouse) [1]
  MFI: 325
Mouse TMEM106B (mouse) [2]
  fold-change over parental HEK293: 1.97 fold

— patent publication US20230303681A1
